Measured values from paper PMC2919415, “Integrating Ion Mobility Mass Spectrometry with Molecular Modelling to Determine the Architecture of Multiprotein Complexes” (PLoS ONE, 2010).
Several values for one entry are separate records, joined by “and”; a condition that tells them apart may be missing. Equal values may be shown once.

Experiments:
[1] = target: the molecule itself; experiment: native MS; nano-electrospray ion mobility-MS (Synapt HDMS) of γ alone; 0.1 M NH4OAc pH 6.9
[2] = target: T1, δ′ subunit of the γ complex (clamp loader), E. coli (E. coli, UniProt P28631 1-334); experiment: native MS; nano-electrospray ion mobility-MS (Synapt HDMS) of γδ′ subcomplexes; γ and δ′ mixed 3:2, then exchanged into 0.1 M NH4OAc; conditions: both partners purified
T1 construct: δ′ subunit of the E. coli clamp loader (γ complex); source: overexpressed in E. coli and purified as described [45-48]

[3] = target: the molecule itself; experiment: as above

B1: γ subunit of the γ complex (clamp loader), E. coli (natural protein, UniProt P06710-2 1-431, looked up)
chain: MSYQVLARKWRPQTFADVVGQEHVLTALANGLSLGRIHHAYLFSGTRGVGKTSIARLLAKGLNCETGITATPCGVCDNCREIEQGRFVDLIEIDAASRTKVEDTRDLLDNVQYAPARGRFKVYLIDEVHMLSRHSFNALLKTLEEPPEHVKFLLATTDPQKLPVTILSRCLQFHLKALDVEQIRHQLEHILNEEHIAHEPRALQLLARAAEGSLRDALSLTDQAIASGDGQVSTQAVSAMLGTLDDDQALSLVEAMVEANGERVMALINEAAARGIEWEALLVEMLGLLHRIAMVQLSPAALGNDMAAIELRMRELARTIPPTDIQLYYQTLLIGRKELPYAPDRRMGVEMTLLRALAFHPRMPLPEPEVPRQSFAPVAPTAVMTPTQVPPQPQSAPQQAPTVPLPETTSQVLAARQQLQRVQGATKAKKE
notes: γ subunit of the E. coli clamp loader (γ complex); the legend speaks of the full length γ subunit against the truncated γ of the crystal structure; also called γ2; γ3; source: overexpressed in E. coli and purified as described [45-48]
[1]
  stoichiometry N: 4
[2]
  stoichiometry N: 2 γ per δ′ and 3 γ per δ′
[3]
  stoichiometry N: 2 and 3
